Changes are numbered by the printed parent chain.

The labels stand for the following.
T1: human Nectin-4 extracellular antigen hNectin-4-His (human, UniProt Q96NY8 32-349)
T1 construct: C-terminal 8xHis tag included
T1 sequence: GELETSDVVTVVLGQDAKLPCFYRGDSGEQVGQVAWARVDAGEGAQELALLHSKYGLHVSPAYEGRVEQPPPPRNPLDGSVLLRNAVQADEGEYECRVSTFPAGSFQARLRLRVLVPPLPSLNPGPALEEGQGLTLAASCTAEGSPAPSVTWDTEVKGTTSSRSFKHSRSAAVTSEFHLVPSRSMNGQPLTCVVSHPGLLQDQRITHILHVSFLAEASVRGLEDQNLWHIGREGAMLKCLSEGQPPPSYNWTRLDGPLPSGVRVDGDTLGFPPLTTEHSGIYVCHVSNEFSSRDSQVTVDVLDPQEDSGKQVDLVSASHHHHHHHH

B1: 1G8-1F11 scFv (scFv, V domains shown)
VH: EVQLVESGGGLVQPGGSLRLSCAASGDTFSSYAMSWVRQAPGKGLEWVSRISQTGGTTDYADSVKGRFTISRDNSKNTLYLQMNSLRAEDTAVYYCARQTEDRSYGYDLDYWGQGTLVTVSS
VL: DIQMTQSPSSLSASVGDRVTITCRASQGISSYLAWYQQKPGKAPKLLIYAASSLQSGVPSRFSGSGSGTDFTLTISSLQPEDFATYYCQQHYTTPPTFGQGTKVEIKR
notes: phage clone supernatant
B2: 1G8-2H3 scFv (scFv, V domains shown)
VH: B1 VH with D27Y, T28S, S30G, S31G, Q53G, T54I, G55K, G56A, T57Y, T58N
VL: B1 VL
notes: phage clone supernatant
B3: 1G8-2A4 scFv (scFv, V domains shown)
VH: B1 VH with Y32N, S52Y, Q53G, T54G, G55S, G56W, T57D
VL: B1 VL
notes: phage clone supernatant
B4: 1G8-1G9 scFv (scFv, V domains shown)
VH: EVQLVESGGGLVQPGGSLRLSCAASGFNFGDFAMSWVRQAPGKGLEWVSRIYSGDDNASYADSVKGRFTISRDNSKNTLYLQMNSLRAEDTAVYYCARQTEDRSYGYDLDYWGQGTLVTVSS
VL: B1 VL
notes: phage clone supernatant
B5: 1G8-2F2 scFv (scFv, V domains shown)
VH: B1 VH with T28I, S30G, Q53S, T54H, G56A, T57S, T58R
VL: B1 VL
notes: phage clone supernatant
B6: 1G8-2F9 scFv (scFv, V domains shown)
VH: B1 VH with D27Y, T28S, S31N, Q53A, T54W, G56S, T58N, D59N
VL: B1 VL
notes: phage clone supernatant
B7: 1G8-2E7 scFv (scFv, V domains shown)
VH: B1 VH with D27Y, S30G, S31N, Q53P, T54S, G55T, G56W, T57N, T58I
VL: B1 VL
notes: phage clone supernatant
B8: 1G8-1H1 scFv (scFv, V domains shown)
VH: B1 VH with S31G, S52Y, Q53P, T54Y, G55S, G56S, T57V, T58R
VL: B1 VL
notes: phage clone supernatant
B9: 1G8-2A1 scFv (scFv, V domains shown)
VH: B4 VH with F27Y, N28S, G30D, D31G, Y52S, S53G, G54H, D56W, N57S, A58S
VL: B1 VL
notes: phage clone supernatant
B10: 1G8-2A11 scFv (scFv, V domains shown)
VH: B1 VH with T28S, S30Y, S31N, A33S, Q53S, T54D, G56W, T57E, D59F
VL: B1 VL
notes: phage clone supernatant
B11: 1G8-2B3 scFv (scFv, V domains shown)
VH: B1 VH with D27Y, T28N, S30T, S31T, Y32S, S52Y, T54D, G55S, G56S
VL: B1 VL
notes: phage clone supernatant
B12: 1G8-2B10 scFv (scFv, V domains shown)
VH: B1 VH with D27F, T28S, S30T, S31N, Y32N, S52D, Q53T, T54I, T58S, D59S
VL: B1 VL
notes: phage clone supernatant
B13: 1G8-1G5 scFv (scFv, V domains shown)
VH: EVQLVESGGGLVQPGGSLRLSCAASGYNFTTSAMSWVRQAPGKGLEWVSRIYADTAYNDYADSVKGRFTISRDNSKNTLYLQMNSLRAEDTAVYYCARQTEDRSYGYDLDYWGQGTLVTVSS
VL: B1 VL
notes: phage clone supernatant
B14: 1G8-2H8 scFv (scFv, V domains shown)
VH: B1 VH with T28I, S30G, R50A, Q53G, T54S, T57S, D59Y
VL: B1 VL
notes: phage clone supernatant
B15: 1G8-2D7 scFv (scFv, V domains shown)
VH: B1 VH with T28S, S30T, Q53A, T54D, G55S, G56A, T57S, T58P, D59S
VL: B1 VL
notes: phage clone supernatant
B16: 1G8-2A7 scFv (scFv, V domains shown)
VH: B1 VH with D27Y, T28S, S31D, Q53A, T54Y, G56W, T57G, T58K, D59S
VL: B1 VL
notes: phage clone supernatant
B17: 1G8-1G3 scFv (scFv, V domains shown)
VH: B1 VH with D27F, T28N, S30G, S31T, Q53G, T54I, G55S, G56A, T57G, D59N
VL: B1 VL
notes: phage clone supernatant
B18: 1G8-1H6 scFv (scFv, V domains shown)
VH: B4 VH with G30S, D31G, S53P, G54T, D55S, D56S, N57E, A58S, S59D
VL: B1 VL
notes: phage clone supernatant
B19: 1G8-2C7 scFv (scFv, V domains shown)
VH: B1 VH with D27Y, T28S, S30T, S31N, Y32F, T54D, T57N, T58K, D59N
VL: B1 VL
notes: phage clone supernatant
B20: 1G8-2H1 scFv (scFv, V domains shown)
VH: B1 VH with D27Y, T28S, S30Y, T54G, T57V, D59H
VL: B1 VL
notes: phage clone supernatant
B21: 1G8-1G12 scFv (scFv, V domains shown)
VH: B13 VH with T31S, A53S, D54I, T55S, A56G, Y57N, N58T
VL: B1 VL
notes: phage clone supernatant
B22: 1G8-2C6 scFv (scFv, V domains shown)
VH: B1 VH with T28N, S52Y, Q53G, T54S, G55D, G56S, T58P
VL: B1 VL
notes: phage clone supernatant
B23: 1G8-2B5 scFv (scFv, V domains shown)
VH: B4 VH with F27Y, D31N, F32Y, Y52K, G54H, D56S, N57T, A58S, S59H
VL: B1 VL
notes: phage clone supernatant
B24: 1G8-2F11 scFv (scFv, V domains shown)
VH: B1 VH with D27Y, S30G, Y32N, Q53P, T54D, G55S, G56S, T57G, T58I, D59S
VL: B1 VL
notes: phage clone supernatant
B25: 1G8-2D9 scFv (scFv, V domains shown)
VH: EVQLVESGGGLVQPGGSLRLSCAASGDIFDGYSMSWVRQAPGKGLEWVSRIDTGGSVKNYADSVKGRFTISRDNSKNTLYLQMNSLRAEDTAVYYCARQTEDRSYGYDLDYWGQGTLVTVSS
VL: B1 VL
notes: phage clone supernatant
B26: 1G8-2B6 scFv (scFv, V domains shown)
VH: B13 VH with Y27G, N28S, T30G, T31G, S32Y, D54Y, T55K, A56S, Y57E
VL: B1 VL
notes: phage clone supernatant
B27: 1G8-2D11 scFv (scFv, V domains shown)
VH: B1 VH with D27Y, T28S, S31G, Y32N, S52D, Q53G, T54W, G56S, T57Y
VL: B1 VL
notes: phage clone supernatant
B28: 1G8-2G4 scFv (scFv, V domains shown)
VH: B25 VH with D27F, I28T, D30G, D52S, G54D, S56A, V57Y, K58T
VL: B1 VL
notes: phage clone supernatant
B29: 1G8-2H4 scFv (scFv, V domains shown)
VH: B1 VH with T28S, S30T, S31G, R50A, Q53G, T54S, T57S, D59Y
VL: B1 VL
notes: phage clone supernatant
B30: 1G8-2G7 scFv (scFv, V domains shown)
VH: B1 VH with D27G, S30Y, S31T, S52Y, Q53S, G55K, T58P
VL: B1 VL
notes: phage clone supernatant
B31: 1G8-2G3 scFv (scFv, V domains shown)
VH: B1 VH with D27F, T28I, S30G, S31G, Y32N, Q53S, T54D, G55K, D59N
VL: B1 VL
notes: phage clone supernatant
B32: 1G8-2G8 scFv (scFv, V domains shown)
VH: B1 VH with D27F, T28N, S30T, S31N, Q53T, T54Y, G56D, D59H
VL: B1 VL
notes: phage clone supernatant
B33: 1G8-2D6 scFv (scFv, V domains shown)
VH: B25 VH with D27F, I28S, S33A, D52S, T53A, G54H, G55S, S56W, V57N, N59D
VL: B1 VL
notes: phage clone supernatant
B34: 1G8-2G9 scFv (scFv, V domains shown)
VH: B1 VH with D27Y, T28I, S30T, S31N, T54S, T58N
VL: B1 VL
notes: phage clone supernatant

This assay deals with T1, human Nectin-4 extracellular antigen …. Briefly: ELISA, phage scFv supernatant 1:50. As for the experimental part: The supernatants were diluted 50-fold, and the binding OD values of the diluted supernatants to hNectin-4-His were measured by ELISA. The samples were serially 3-fold diluted, and the EC₅₀ titer for the binding of the supernatants to the antigen was measured by ELISA. […] The light chain variable region sequence is set forth in SEQ ID NO: 25. The OD value is the measurement of ELISA, and the EC₅₀ value denotes the EC₅₀ value of the binding activity titer of the supernatant to the antigen.
On the technique in general: ELISA stands for enzyme-linked immunosorbent assay.
In turn, B1 had an OD value of 1.6 OD.
Turning to B2, the OD value came out at 1.53 OD.
In the case of B3, the OD value was 1.54 OD.
For B4, the OD value turned out to be 1.55 OD.
B5 returned an OD value of 1.6 OD.
The molecule B6 displayed an OD value of 1.56 OD.
The result for B7 reads 1.56 OD; that for B8, 1.4 OD.
The result for B9 reads 1.6 OD; that for B10, 1.54 OD.
B11 came in with an OD value of 1.57 OD.
B12 had an OD value of 1.56 OD.
Molecule B13 came in with an OD value of 1.48 OD.
Turning to B14, the OD value is 1.57 OD.
B15 displayed an OD value of 1.54 OD.
Molecule B16 yielded an OD value of 1.6 OD.
In turn, B17 showed an OD value of 1.58 OD.
B18 had an OD value of 1.58 OD.
The result for B19 reads 1.58 OD; that for B20, 1.58 OD.
On to B21, for which the OD value stood at 1.55 OD.
In turn, B22 gave an OD value of 1.58 OD.
B23 returned an OD value of 1.58 OD.
B24 had an OD value of 1.57 OD.
Molecule B25 gave an OD value of 1.54 OD.
B26 yielded an OD value of 1.56 OD.
Consider B27, for which the OD value is 1.53 OD.
The molecule B28 returned an OD value of 1.58 OD.
B29 returned an OD value of 1.58 OD.
As to B30, the OD value amounted to 1.49 OD.
Molecule B31 yielded an OD value of 1.58 OD.
The result for B32 reads 1.58 OD.
With B33, the OD value turned out to be 1.63 OD.
Molecule B34 returned an OD value of 1.54 OD.

These data come from patent US20260144882A1 (BIO THERA SOLUTIONS, published 2026).
